{"source": "patent US20240180962A1", "molecular_target": "CD20 on ARH-77 tumor cells (CD20+ plasma cell leukemia cell line, ATCC CRL-1621) (human) (UniProt P11836)", "sequence (P11836 whole entry)": "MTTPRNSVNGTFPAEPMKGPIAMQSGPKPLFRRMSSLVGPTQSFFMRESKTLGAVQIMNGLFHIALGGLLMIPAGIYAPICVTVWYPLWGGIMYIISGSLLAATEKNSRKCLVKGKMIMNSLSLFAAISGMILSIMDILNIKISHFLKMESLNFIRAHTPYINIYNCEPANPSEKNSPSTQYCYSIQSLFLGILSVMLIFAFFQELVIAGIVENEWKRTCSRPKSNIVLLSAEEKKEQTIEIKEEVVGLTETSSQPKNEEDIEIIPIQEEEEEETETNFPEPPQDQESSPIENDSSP", "experiment": "cell-based or functional assay"}
{"substance": "obinutuzumab (antibody)", "values": [{"measurement": "AB-101 killing activity (ADCC, 4 hour caspase assay against ARH-77 cells)", "result": 66, "unit": "fold"}]}
